Source: patent US10500249B2, “Compositions and methods for preventing or treating diseases, conditions, or processes characterized by aberrant fibroblast proliferation and extracellular matrix deposition” (MOERAE MATRIX, INC., priority 2014, dated 2019)

Tests used:
Test in all cases: Kinase Profiling Assay
Assay type in all cases: biochemical
Conditions in all cases: 100 μM
MSK1 (h) = target: T1, MSK1 (h) (Homo sapiens, UniProt O75582)
T1 construct: purchased Millipore
Description: (§1) Every kinase activity measurement was conducted in duplicate.
(§2) Specifically, in these assays, a positively charged substrate is phosphorylated with a radiolabeled phosphate group from an ATP if the kinase is not inhibited by an inhibitor peptide. The positively charged substrate then is attracted to a negatively charged filter membrane, quantified with a scintillation counter, and compared to a 100% activity control.
(§3) In addition to determining the IC50 of the compound, the specificity of MK2 inhibitory peptides was assessed by examining activities of all 266 human kinases available for testing in the Millipore kinase profiling service (Table 1).

Met(D1246H) (h) = Met(D1246H) (h) (Homo sapiens, UniProt P08581, D1228H)
Description: as §1, §2, §3

DCAMKL2 (h) = target: T2, DCAMKL2 (h) (Homo sapiens, UniProt Q8N568)
T2 construct: purchased Millipore
T2 sequence (Q8N568 1-766): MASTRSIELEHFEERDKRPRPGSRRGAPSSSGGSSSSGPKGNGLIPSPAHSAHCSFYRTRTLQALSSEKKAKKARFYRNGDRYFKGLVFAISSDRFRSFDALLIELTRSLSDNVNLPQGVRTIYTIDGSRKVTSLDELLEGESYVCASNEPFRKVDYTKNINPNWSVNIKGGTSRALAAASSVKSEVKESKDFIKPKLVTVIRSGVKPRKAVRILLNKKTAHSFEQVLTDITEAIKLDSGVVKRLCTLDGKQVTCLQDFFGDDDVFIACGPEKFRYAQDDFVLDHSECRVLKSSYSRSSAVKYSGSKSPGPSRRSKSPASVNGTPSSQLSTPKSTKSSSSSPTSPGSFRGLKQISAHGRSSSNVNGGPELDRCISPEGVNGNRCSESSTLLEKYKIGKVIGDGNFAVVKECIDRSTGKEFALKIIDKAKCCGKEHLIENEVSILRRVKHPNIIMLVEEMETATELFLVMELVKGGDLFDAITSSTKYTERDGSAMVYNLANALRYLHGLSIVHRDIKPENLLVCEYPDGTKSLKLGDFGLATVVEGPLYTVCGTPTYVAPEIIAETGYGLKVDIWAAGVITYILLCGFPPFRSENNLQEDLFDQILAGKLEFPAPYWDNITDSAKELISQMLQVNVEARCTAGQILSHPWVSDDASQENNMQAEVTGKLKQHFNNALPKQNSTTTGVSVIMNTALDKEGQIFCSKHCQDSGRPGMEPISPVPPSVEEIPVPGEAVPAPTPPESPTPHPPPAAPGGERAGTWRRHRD
Description: as §1, §2, §3

CDK5/p35 (h) = target: T3, CDK5/p35 (h) (Homo sapiens, UniProt Q00535)
T3 construct: purchased Millipore
T3 sequence (Q00535 whole entry): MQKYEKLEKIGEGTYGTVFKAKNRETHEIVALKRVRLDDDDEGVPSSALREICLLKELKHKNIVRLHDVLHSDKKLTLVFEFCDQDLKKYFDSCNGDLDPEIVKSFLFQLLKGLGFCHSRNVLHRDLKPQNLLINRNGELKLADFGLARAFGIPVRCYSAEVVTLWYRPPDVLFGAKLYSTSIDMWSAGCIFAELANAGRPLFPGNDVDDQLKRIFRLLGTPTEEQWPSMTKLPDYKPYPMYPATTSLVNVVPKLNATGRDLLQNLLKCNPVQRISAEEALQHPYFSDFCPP
T3 sequence (Q15078 2-307 partner limits assumed): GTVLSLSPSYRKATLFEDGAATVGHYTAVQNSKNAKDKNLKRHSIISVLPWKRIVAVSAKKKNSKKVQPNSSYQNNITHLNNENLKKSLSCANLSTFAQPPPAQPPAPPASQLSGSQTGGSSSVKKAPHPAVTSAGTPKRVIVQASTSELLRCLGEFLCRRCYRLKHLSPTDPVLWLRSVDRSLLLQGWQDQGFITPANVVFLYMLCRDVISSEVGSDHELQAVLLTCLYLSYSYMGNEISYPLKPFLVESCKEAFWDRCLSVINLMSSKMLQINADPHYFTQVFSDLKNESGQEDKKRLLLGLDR
Description: as §1, §2, §3

p70S6K (h) = target: T4, p70S6K (h) (Homo sapiens, UniProt P23443)
T4 construct: purchased Millipore
T4 sequence (P23443 whole entry): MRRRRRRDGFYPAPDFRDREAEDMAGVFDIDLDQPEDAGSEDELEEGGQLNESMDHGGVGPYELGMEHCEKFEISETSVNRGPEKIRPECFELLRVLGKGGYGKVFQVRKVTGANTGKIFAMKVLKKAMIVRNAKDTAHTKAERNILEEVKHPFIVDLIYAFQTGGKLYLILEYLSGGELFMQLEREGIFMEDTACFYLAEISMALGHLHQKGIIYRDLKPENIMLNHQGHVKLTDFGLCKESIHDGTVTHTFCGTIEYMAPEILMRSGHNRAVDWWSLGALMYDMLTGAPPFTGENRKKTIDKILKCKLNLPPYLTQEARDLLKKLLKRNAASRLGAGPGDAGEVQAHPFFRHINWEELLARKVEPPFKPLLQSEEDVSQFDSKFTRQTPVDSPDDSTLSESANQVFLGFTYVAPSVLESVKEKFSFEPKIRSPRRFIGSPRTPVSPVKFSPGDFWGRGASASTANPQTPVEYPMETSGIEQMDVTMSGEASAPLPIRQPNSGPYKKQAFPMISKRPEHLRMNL
Description: as §1, §2, §3

CK1δ (h) = target: T5, CK1δ (h) (Homo sapiens, UniProt P48730)
T5 construct: purchased Millipore
T5 sequence (P48730 whole entry): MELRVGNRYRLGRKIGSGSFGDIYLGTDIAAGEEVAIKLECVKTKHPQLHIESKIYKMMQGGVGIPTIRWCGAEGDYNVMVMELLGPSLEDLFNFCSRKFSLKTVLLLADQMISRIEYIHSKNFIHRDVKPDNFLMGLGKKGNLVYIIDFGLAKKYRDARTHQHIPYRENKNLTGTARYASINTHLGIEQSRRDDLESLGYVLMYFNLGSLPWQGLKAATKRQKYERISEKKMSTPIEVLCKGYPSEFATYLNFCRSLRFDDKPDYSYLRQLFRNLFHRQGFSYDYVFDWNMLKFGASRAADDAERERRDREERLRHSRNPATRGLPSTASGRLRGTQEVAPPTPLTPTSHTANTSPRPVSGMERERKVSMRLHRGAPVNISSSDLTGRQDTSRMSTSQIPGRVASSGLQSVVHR
Description: as §1, §2, §3

CDK1/cyclinB (h) = target: T6, CDK1/cyclinB (h) (Homo sapiens, UniProt P06493)
T6 construct: purchased Millipore
T6 sequence (P06493 whole entry): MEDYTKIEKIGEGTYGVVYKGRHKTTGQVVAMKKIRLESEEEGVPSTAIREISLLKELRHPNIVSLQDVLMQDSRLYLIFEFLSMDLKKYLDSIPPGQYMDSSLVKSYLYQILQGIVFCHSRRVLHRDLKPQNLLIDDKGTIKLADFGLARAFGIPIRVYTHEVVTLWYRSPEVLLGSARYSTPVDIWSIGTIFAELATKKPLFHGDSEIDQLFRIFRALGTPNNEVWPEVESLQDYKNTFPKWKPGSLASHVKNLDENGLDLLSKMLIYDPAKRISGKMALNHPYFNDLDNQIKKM
T6 sequence (P14635 whole entry partner): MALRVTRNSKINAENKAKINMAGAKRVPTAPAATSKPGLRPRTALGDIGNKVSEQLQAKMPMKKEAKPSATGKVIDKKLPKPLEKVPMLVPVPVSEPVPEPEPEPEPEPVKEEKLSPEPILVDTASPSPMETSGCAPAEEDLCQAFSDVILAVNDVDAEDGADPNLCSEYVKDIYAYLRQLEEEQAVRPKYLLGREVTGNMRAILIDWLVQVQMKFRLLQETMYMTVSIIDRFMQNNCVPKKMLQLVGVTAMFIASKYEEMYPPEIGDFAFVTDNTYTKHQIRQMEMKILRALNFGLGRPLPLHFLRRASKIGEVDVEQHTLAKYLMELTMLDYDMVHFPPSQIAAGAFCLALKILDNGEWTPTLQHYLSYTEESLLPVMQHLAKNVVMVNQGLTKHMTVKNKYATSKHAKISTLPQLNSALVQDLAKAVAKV
Description: as §1, §2, §3

AMPKα2 (h) = AMPKα2 (h) (Homo sapiens, UniProt P54646)
Sequence of AMPKα2 (h) (P54646 whole entry): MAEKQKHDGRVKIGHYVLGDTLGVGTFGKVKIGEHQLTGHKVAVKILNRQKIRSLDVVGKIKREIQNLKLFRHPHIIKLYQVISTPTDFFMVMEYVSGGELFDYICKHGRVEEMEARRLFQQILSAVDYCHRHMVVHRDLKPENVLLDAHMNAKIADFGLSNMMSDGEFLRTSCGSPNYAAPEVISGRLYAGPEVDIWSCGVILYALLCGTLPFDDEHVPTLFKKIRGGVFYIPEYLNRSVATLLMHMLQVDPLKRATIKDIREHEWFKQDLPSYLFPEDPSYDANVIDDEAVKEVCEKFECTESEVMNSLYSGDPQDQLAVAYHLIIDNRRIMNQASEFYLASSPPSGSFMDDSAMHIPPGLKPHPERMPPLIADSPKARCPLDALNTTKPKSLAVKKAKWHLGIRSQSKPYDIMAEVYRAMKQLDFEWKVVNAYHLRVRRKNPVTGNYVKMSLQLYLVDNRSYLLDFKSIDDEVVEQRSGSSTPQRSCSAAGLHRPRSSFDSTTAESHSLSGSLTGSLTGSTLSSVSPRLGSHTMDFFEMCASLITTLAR
Sequence of AMPKα2 (h) (Q9Y478 whole entry partner): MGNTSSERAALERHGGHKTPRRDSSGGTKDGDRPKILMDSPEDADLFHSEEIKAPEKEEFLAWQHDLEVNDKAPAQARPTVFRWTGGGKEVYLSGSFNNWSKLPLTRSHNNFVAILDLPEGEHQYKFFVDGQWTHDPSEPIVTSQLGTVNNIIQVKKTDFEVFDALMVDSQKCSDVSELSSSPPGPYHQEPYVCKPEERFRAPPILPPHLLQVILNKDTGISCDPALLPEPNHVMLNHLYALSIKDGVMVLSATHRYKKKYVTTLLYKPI
Sequence of AMPKα2 (h) (P54619 whole entry partner): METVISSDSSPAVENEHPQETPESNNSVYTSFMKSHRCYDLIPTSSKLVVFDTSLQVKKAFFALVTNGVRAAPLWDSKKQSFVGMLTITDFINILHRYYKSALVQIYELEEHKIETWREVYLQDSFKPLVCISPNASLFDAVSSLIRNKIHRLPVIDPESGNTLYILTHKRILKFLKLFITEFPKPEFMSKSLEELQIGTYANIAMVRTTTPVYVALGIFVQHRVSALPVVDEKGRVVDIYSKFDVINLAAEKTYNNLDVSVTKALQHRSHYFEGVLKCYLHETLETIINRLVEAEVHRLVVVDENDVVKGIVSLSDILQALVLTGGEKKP
Description: as §1, §2, §3

PDK1 (h) = target: T7, PDK1 (h) (Homo sapiens, UniProt O15530)
T7 construct: purchased Millipore
T7 sequence (O15530 1-556): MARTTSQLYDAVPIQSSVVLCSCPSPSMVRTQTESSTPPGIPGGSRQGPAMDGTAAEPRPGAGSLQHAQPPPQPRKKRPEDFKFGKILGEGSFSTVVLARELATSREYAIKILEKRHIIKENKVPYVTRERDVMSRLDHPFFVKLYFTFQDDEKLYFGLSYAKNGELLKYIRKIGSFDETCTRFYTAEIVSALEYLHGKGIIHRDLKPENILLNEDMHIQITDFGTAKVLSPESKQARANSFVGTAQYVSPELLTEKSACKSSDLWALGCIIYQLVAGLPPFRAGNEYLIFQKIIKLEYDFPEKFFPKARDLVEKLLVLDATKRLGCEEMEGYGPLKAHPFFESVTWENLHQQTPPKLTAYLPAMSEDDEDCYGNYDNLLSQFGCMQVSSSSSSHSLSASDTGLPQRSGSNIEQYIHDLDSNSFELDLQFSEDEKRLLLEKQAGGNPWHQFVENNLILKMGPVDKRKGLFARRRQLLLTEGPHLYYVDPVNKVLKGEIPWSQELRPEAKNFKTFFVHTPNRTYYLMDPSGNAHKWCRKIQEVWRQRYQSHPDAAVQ
Description: as §1, §2, §3

MEK1 (h) = MEK1 (h) (Homo sapiens, UniProt Q02750)
Description: as §1, §2, §3

DDR2 (h) = target: T8, DDR2 (h) (Homo sapiens, UniProt Q16832)
T8 construct: purchased Millipore
T8 sequence (Q16832 22-855): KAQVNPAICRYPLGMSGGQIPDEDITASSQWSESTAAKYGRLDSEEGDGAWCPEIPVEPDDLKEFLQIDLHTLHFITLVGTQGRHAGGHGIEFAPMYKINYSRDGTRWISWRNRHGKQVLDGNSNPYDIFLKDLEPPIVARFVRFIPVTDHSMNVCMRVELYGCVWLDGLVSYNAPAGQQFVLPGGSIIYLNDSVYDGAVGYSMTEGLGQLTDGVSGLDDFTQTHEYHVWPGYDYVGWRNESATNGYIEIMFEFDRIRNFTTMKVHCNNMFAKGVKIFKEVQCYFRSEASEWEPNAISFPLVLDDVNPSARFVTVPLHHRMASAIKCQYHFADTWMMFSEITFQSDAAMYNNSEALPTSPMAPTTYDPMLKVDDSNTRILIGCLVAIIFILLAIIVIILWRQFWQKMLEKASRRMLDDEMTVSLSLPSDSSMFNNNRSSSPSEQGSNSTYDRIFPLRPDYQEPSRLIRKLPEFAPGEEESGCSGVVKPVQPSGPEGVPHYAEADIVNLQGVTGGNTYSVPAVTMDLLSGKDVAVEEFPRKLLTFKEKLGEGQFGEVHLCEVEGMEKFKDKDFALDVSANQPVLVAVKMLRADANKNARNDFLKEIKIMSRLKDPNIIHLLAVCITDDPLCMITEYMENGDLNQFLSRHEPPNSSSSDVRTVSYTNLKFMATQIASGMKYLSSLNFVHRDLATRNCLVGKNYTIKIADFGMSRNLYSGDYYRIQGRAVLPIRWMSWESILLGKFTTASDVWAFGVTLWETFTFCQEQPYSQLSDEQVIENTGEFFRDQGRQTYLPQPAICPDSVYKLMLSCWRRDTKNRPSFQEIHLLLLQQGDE
Description: as §1, §2, §3

T1 sequence (O75582 whole entry): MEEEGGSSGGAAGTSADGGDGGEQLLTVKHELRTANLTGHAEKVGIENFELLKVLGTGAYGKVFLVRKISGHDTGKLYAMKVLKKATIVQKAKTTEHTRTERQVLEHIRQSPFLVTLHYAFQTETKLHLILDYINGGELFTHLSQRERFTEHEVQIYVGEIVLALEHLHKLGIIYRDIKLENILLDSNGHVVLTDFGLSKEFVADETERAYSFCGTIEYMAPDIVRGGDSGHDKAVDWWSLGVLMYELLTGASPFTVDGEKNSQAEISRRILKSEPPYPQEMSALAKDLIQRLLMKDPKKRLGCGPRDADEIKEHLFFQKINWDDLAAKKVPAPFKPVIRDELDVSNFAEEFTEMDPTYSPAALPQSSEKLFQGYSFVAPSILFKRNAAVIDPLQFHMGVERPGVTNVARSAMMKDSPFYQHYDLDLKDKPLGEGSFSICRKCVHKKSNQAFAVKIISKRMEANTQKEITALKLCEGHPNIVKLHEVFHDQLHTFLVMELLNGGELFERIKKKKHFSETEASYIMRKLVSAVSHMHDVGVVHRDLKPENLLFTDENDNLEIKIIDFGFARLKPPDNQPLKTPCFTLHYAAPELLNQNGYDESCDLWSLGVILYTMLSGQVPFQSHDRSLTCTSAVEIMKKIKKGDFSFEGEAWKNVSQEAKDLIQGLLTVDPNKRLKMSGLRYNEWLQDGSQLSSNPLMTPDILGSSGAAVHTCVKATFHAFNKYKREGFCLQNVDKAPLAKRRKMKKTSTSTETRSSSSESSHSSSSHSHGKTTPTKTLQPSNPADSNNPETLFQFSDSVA

FAKLAARLYRKALARQLGVAA [MMI-0300]
% activity (MSK1 (h)): 32%
% activity (Met(D1246H) (h)): 125%
% activity (DCAMKL2 (h)): 81%
% activity (CDK5/p35 (h)): 79%
% activity (p70S6K (h)): 35%
% activity (CK1δ (h)): 92%
% activity (CDK1/cyclinB (h)): 73%
% activity (AMPKα2 (h)): 54%
% activity (PDK1 (h)): 135%
% activity (MEK1 (h)): 77%
% activity (DDR2 (h)): 94%

HRRIKAWLKKIKALARQLGVAA (Mammalian) [MMI-0500]
% activity (MSK1 (h)): 8%
% activity (Met(D1246H) (h)): 150%
% activity (DCAMKL2 (h)): 56%
% activity (CDK5/p35 (h)): 59%
% activity (p70S6K (h)): 3%
% activity (CK1δ (h)): 78%
% activity (CDK1/cyclinB (h)): 57%
% activity (AMPKα2 (h)): 9%
% activity (PDK1 (h)): 178%
% activity (MEK1 (h)): 21%
% activity (DDR2 (h)): 79%

KAFAKLAARLYRKALARQLGVAA [MMI-0400]
% activity (MSK1 (h)): 28%
% activity (Met(D1246H) (h)): 68%
% activity (DCAMKL2 (h)): 70%
% activity (CDK5/p35 (h)): 76%
% activity (p70S6K (h)): 33%
% activity (CK1δ (h)): 93%
% activity (CDK1/cyclinB (h)): 74%
% activity (AMPKα2 (h)): 58%
% activity (PDK1 (h)): 159%
% activity (MEK1 (h)): 77%
% activity (DDR2 (h)): 95%

YARAAARQARAKALNRQLGVA (Mammalian) [MMI-0200]
% activity (MSK1 (h)): 50%
% activity (Met(D1246H) (h)): 139%
% activity (DCAMKL2 (h)): 131%
% activity (CDK5/p35 (h)): 92%
% activity (p70S6K (h)): 84%
% activity (CK1δ (h)): 92%
% activity (AMPKα2 (h)): 88%
% activity (PDK1 (h)): 143%
